Data as given in patent US20240409645A1.
Changes are numbered by the printed parent chain.

B1: FJ1427_P035MP06F05 (VHH)
VHH: QVQLVESGGGLVQTGDSLRLSCAASGRSLDTTYIAWFRQAPGKERDFLAYISPRFSHTWYADSVKGRFTISRNIAKRTVDLEMNSLEPEDTAVYYCAAREHSGSTAWEHYDHWGQGTQVTVSS
B2: FJ1427_P035MP03F12 (VHH)
VHH: EVQLVESGGGLVQAGGSLRLSCAASGSIFSINAMAWFRQVPGMERELVAAISRDGGASVYRDSVKGRFTISRDNSKNTVYLQMNTLKPEDTAIYVCAATRAIGWTARWITTDFDFWGQGTQVTVSS
B3: FJ1427_P035MP02E01 (VHH)
VHH: EVQLVESGGGLVQIGGSLRLSCAASGRTFSSITMAYFRQVPGKEREWVAGINFSGTRTFYADSVKGRFLISRDDAKSTMYLQMNSLKPEDTAVYYCAASPRGFYGPGNALYDYWGQGTQVTVSS
B4: FJ1427 P035MP06E05 (VHH)
VHH: QVQLVESGGELVQGGASLRLSCAASGRTFSNANMAWFRQAPEKEREFVALITWSSGSTLYADSVKGRFTISRDNARKMVYLQMNSLKPEDTAVYYCAADGPPYSGTYYRYDTYDYWGQGTQVTVSS
B5: FJ1427_P035MP02A01 (VHH)
VHH: QVQLVESGGGLVQTGGSLRLSCVVSGSHFISDVMGWYRQVPGKQRELVADMADGGSAKYGDSVKGRFTILRDSVKNTVYLQMSSLNPEDTGVYYCKAGLWITGRHSDYWGQGTQVTVSS
B6: FJ1427_P035MP02F01 (VHH)
VHH: B5 VHH with Q1E, V23A, H28R, G60A, T68S, N86K, V92I, T102A
B7: FJ1427_P035MP02G01 (VHH)
VHH: B5 VHH with V23A, H28R, G60A, T68S, V74A, N86K, V92I, T102A
B8: FJ1427_P035MP02B01 (VHH)
VHH: QVQLVESGGGLVQTGGSLRLSCAASGSQFINDVMGWYRQVPGKQRELVADMDDTGSTKYADSVKGRFTILRDSVKNTAYLQMSNLKPEDTGVYYCKAGLWIKGRHFDYWGQGTQVTVSS
B9: FJ1427 P035MP02D01 (VHH)
VHH: B8 VHH with V5Q, F106S
B10: FJ1427_P035MP03F10 (VHH)
VHH: EVQLVESGGGLVQAGGSLRLSCAASGRDFSSYAMGWFRQAPGKEREFVVAITWTKRSTDFPDSVKGRFTISRDNAKNTVYLDMNSLKPEDTAVYYCASARGLPVTPLGDIIYWGEGTLVTVSS
B11: FJ1427 P035MP03A12 (VHH)
VHH: EVQLVESGGGLVQAGGSLRLSCAASGRTFSINAMGWFRQAPGKEREFVAAISRSGGSTVYVDGVKGRFTISRDNAKNTVYLQMNSLEPEDTAVYYCAATMAVGWTTRWRTADFDSWGQGTQVTVSS
B12: FJ1427 P035MP02C01 (VHH)
VHH: QVQLVESGGGLVQPGGSLGLSCAASGFTFDNYAMSWVRQAPGKGLEWVSSITGAGRGTHYADSVKGRFTISRDNAKNTLYLQMNSLKPEDTAVYYCAKYSSSTYYPPTPARGTDYRGPGTQVTVSS
B13: FJ1427_P035MP02A02 (VHH)
VHH: B12 VHH with G19R, S35T, M83V, K98R, P107T, A110V, P118Q
B14: FJ1427_P035MP02H01 (VHH)
VHH: B12 VHH

Each binder was assayed against T1, mouse IL-2Rβ (mouse) (UniProt P16297) (assay: P.E. ELISA, coated protein).
T1 sequence (looked up): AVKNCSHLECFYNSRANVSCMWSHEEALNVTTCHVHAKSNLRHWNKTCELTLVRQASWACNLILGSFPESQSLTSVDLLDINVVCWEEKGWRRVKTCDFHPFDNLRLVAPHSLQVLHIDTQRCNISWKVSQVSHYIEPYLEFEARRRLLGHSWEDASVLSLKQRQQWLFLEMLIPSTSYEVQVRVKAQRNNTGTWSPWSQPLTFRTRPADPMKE

| Binder | P.E. binding ELISA OD [OD450 nm] |
| --- | --- |
| B1 | 0.047 |
| B2 | 0.048 |
| B3 | 0.049 |
| B4 | 0.046 |
| B5 | 0.048 |
| B6 | 0.048 |
| B7 | 0.049 |
| B8 | 0.048 |
| B9 | 0.048 |
| B10 | 0.048 |
| B11 | 0.05 |
| B12 | 0.047 |
| B13 | 0.049 |
| B14 | 0.051 |
